According to patent publication US20140087995A1 (published 2014):
Numbered stars: 1 amine (or outer) side, 2 acyl side, 3 side chain; on linkers, the order of the positions; unused ones are H or OH. Bridge positions count the residues as written; N and C are the ends. Side chains are listed from the residue outwards. Ends that are not written are not given here. * marks the point of attachment. C20 diacid = O=C(O)CCCCCCCCCCCCCCCCCCC(=O)*; γGlu = O=C(O)[C@H](CCC(=O)[*:2])N[*:1]

T1: human calcitonin receptor (human, UniProt P30988 25-474)
T1 construct: whole, on cells; Assay used cell membranes, not intact cells; also called hCTR; hCT
T1 sequence (looked up): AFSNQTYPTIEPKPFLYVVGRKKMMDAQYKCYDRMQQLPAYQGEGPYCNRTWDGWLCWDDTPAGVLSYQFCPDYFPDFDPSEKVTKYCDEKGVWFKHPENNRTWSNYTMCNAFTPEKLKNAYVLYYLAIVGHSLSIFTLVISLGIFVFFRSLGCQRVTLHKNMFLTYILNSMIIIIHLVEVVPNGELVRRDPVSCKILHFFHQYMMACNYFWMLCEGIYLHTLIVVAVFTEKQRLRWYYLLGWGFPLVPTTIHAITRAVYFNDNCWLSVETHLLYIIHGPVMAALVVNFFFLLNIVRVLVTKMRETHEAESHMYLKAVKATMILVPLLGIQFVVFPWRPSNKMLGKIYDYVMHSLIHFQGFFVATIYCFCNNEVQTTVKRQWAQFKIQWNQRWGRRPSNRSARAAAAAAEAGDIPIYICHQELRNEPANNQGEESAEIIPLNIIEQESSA

T2: human amylin receptor (amylin 3(a) receptor: human calcitonin receptor with RAMP-3) (human, UniProt P30988 25-474; O60896 24-148)
T2 construct: whole, on cells; Assay used cell membranes of the Amylin 3(a)/CRE-luc BHK cells, not intact cells; also called hAmylin-R; hAmylinR
T2 sequence (looked up) 1: T1 sequence (looked up)
T2 sequence (looked up) 2: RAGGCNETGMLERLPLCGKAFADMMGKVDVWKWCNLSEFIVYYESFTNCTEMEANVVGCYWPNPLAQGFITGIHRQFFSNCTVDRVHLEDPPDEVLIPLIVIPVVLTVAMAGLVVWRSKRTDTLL

B1: N^ε1-[(4S)-4-carboxy-4-[[(4S)-4-carboxy-4-(19-carboxynonadecanoylamino)butanoyl]amino]butanoyl]-[Glu14,Arg17,Pro21,Pro27,Arg34]-h-amylin (peptide)
peptide: K([γGlu-γGlu-C20 diacid])CNTATCATQRLAEFLRHSSPNFGAIPSSTNVGRNTY-NH2
modifications: disulfide 2-7; N-terminus assumed
SMILES: CC[C@H](C)[C@H](NC(=O)[C@H](C)NC(=O)CNC(=O)[C@H](Cc1ccccc1)NC(=O)[C@H](CC(N)=O)NC(=O)[C@@H]1CCCN1C(=O)[C@H](CO)NC(=O)[C@H](CO)NC(=O)[C@H](Cc1c[nH]cn1)NC(=O)[C@H](CCCNC(=N)N)NC(=O)[C@H](CC(C)C)NC(=O)[C@H](Cc1ccccc1)NC(=O)[C@H](CCC(=O)O)NC(=O)[C@H](C)NC(=O)[C@H](CC(C)C)NC(=O)[C@H](CCCNC(=N)N)NC(=O)[C@H](CCC(N)=O)NC(=O)[C@@H](NC(=O)[C@H](C)NC(=O)[C@@H]1CSSC[C@H](NC(=O)[C@@H](N)CCCCNC(=O)CC[C@H](NC(=O)CC[C@H](NC(=O)CCCCCCCCCCCCCCCCCCC(=O)O)C(=O)O)C(=O)O)C(=O)N[C@@H](CC(N)=O)C(=O)N[C@@H]([C@@H](C)O)C(=O)N[C@@H](C)C(=O)N[C@@H]([C@@H](C)O)C(=O)N1)[C@@H](C)O)C(=O)N1CCC[C@H]1C(=O)N[C@@H](CO)C(=O)N[C@@H](CO)C(=O)N[C@H](C(=O)N[C@@H](CC(N)=O)C(=O)N[C@H](C(=O)NCC(=O)N[C@@H](CCCNC(=N)N)C(=O)N[C@@H](CC(N)=O)C(=O)N[C@H](C(=O)N[C@@H](Cc1ccc(O)cc1)C(N)=O)[C@@H](C)O)C(C)C)[C@@H](C)O
notes: also called compound 88
B2: N^ε1-[(4S)-4-carboxy-4-[[(4S)-4-carboxy-4-(19-carboxynonadecanoylamino)butanoyl]amino]butanoyl]-[Glu14,Arg17,Pro21,Pro27,Pro34,His35]-h-amylin (peptide)
peptide: K([γGlu-γGlu-C20 diacid])CNTATCATQRLAEFLRHSSPNFGAIPSSTNVGPHTY-NH2
modifications: disulfide 2-7 (inferred)
B3: N^ε1-[(4S)-4-carboxy-4-[[(4S)-4-carboxy-4-(19-carboxynonadecanoylamino)butanoyl]amino]butanoyl]-[Glu14,Arg17,Pro21,Pro27,Arg35]-h-amylin (peptide)
peptide: K([γGlu-γGlu-C20 diacid])CNTATCATQRLAEFLRHSSPNFGAIPSSTNVGSRTY-NH2
modifications: disulfide 2-7; N-terminus assumed
SMILES: CC[C@H](C)[C@H](NC(=O)[C@H](C)NC(=O)CNC(=O)[C@H](Cc1ccccc1)NC(=O)[C@H](CC(N)=O)NC(=O)[C@@H]1CCCN1C(=O)[C@H](CO)NC(=O)[C@H](CO)NC(=O)[C@H](Cc1c[nH]cn1)NC(=O)[C@H](CCCNC(=N)N)NC(=O)[C@H](CC(C)C)NC(=O)[C@H](Cc1ccccc1)NC(=O)[C@H](CCC(=O)O)NC(=O)[C@H](C)NC(=O)[C@H](CC(C)C)NC(=O)[C@H](CCCNC(=N)N)NC(=O)[C@H](CCC(N)=O)NC(=O)[C@@H](NC(=O)[C@H](C)NC(=O)[C@@H]1CSSC[C@H](NC(=O)[C@@H](N)CCCCNC(=O)CC[C@H](NC(=O)CC[C@H](NC(=O)CCCCCCCCCCCCCCCCCCC(=O)O)C(=O)O)C(=O)O)C(=O)N[C@@H](CC(N)=O)C(=O)N[C@@H]([C@@H](C)O)C(=O)N[C@@H](C)C(=O)N[C@@H]([C@@H](C)O)C(=O)N1)[C@@H](C)O)C(=O)N1CCC[C@H]1C(=O)N[C@@H](CO)C(=O)N[C@@H](CO)C(=O)N[C@H](C(=O)N[C@@H](CC(N)=O)C(=O)N[C@H](C(=O)NCC(=O)N[C@@H](CO)C(=O)N[C@@H](CCCNC(=N)N)C(=O)N[C@H](C(=O)N[C@@H](Cc1ccc(O)cc1)C(N)=O)[C@@H](C)O)C(C)C)[C@@H](C)O
notes: also called compound 89
B4: N^ε1-[(4S)-4-carboxy-4-[[(4S)-4-carboxy-4-(19-carboxynonadecanoylamino)butanoyl]amino]butanoyl]-[Glu14,Arg17,Pro21,Pro27,His34]-h-amylin (peptide)
peptide: K([γGlu-γGlu-C20 diacid])CNTATCATQRLAEFLRHSSPNFGAIPSSTNVGHNTY-NH2
modifications: disulfide 2-7; N-terminus assumed
SMILES: CC[C@H](C)[C@H](NC(=O)[C@H](C)NC(=O)CNC(=O)[C@H](Cc1ccccc1)NC(=O)[C@H](CC(N)=O)NC(=O)[C@@H]1CCCN1C(=O)[C@H](CO)NC(=O)[C@H](CO)NC(=O)[C@H](Cc1c[nH]cn1)NC(=O)[C@H](CCCNC(=N)N)NC(=O)[C@H](CC(C)C)NC(=O)[C@H](Cc1ccccc1)NC(=O)[C@H](CCC(=O)O)NC(=O)[C@H](C)NC(=O)[C@H](CC(C)C)NC(=O)[C@H](CCCNC(=N)N)NC(=O)[C@H](CCC(N)=O)NC(=O)[C@@H](NC(=O)[C@H](C)NC(=O)[C@@H]1CSSC[C@H](NC(=O)[C@@H](N)CCCCNC(=O)CC[C@H](NC(=O)CC[C@H](NC(=O)CCCCCCCCCCCCCCCCCCC(=O)O)C(=O)O)C(=O)O)C(=O)N[C@@H](CC(N)=O)C(=O)N[C@@H]([C@@H](C)O)C(=O)N[C@@H](C)C(=O)N[C@@H]([C@@H](C)O)C(=O)N1)[C@@H](C)O)C(=O)N1CCC[C@H]1C(=O)N[C@@H](CO)C(=O)N[C@@H](CO)C(=O)N[C@H](C(=O)N[C@@H](CC(N)=O)C(=O)N[C@H](C(=O)NCC(=O)N[C@@H](Cc1c[nH]cn1)C(=O)N[C@@H](CC(N)=O)C(=O)N[C@H](C(=O)N[C@@H](Cc1ccc(O)cc1)C(N)=O)[C@@H](C)O)C(C)C)[C@@H](C)O
notes: also called compound 87
B5: N^ε1-[(4S)-4-carboxy-4-[[(4S)-4-carboxy-4-(19-carboxynonadecanoylamino)butanoyl]amino]butanoyl]-[Glu14,Arg17,Pro21,Pro27,His34,Glu35]-h-amylin (peptide)
peptide: K([γGlu-γGlu-C20 diacid])CNTATCATQRLAEFLRHSSPNFGAIPSSTNVGHETY-NH2
modifications: disulfide 2-7; N-terminus assumed
SMILES: CC[C@H](C)[C@H](NC(=O)[C@H](C)NC(=O)CNC(=O)[C@H](Cc1ccccc1)NC(=O)[C@H](CC(N)=O)NC(=O)[C@@H]1CCCN1C(=O)[C@H](CO)NC(=O)[C@H](CO)NC(=O)[C@H](Cc1c[nH]cn1)NC(=O)[C@H](CCCNC(=N)N)NC(=O)[C@H](CC(C)C)NC(=O)[C@H](Cc1ccccc1)NC(=O)[C@H](CCC(=O)O)NC(=O)[C@H](C)NC(=O)[C@H](CC(C)C)NC(=O)[C@H](CCCNC(=N)N)NC(=O)[C@H](CCC(N)=O)NC(=O)[C@@H](NC(=O)[C@H](C)NC(=O)[C@@H]1CSSC[C@H](NC(=O)[C@@H](N)CCCCNC(=O)CC[C@H](NC(=O)CC[C@H](NC(=O)CCCCCCCCCCCCCCCCCCC(=O)O)C(=O)O)C(=O)O)C(=O)N[C@@H](CC(N)=O)C(=O)N[C@@H]([C@@H](C)O)C(=O)N[C@@H](C)C(=O)N[C@@H]([C@@H](C)O)C(=O)N1)[C@@H](C)O)C(=O)N1CCC[C@H]1C(=O)N[C@@H](CO)C(=O)N[C@@H](CO)C(=O)N[C@H](C(=O)N[C@@H](CC(N)=O)C(=O)N[C@H](C(=O)NCC(=O)N[C@@H](Cc1c[nH]cn1)C(=O)N[C@@H](CCC(=O)O)C(=O)N[C@H](C(=O)N[C@@H](Cc1ccc(O)cc1)C(N)=O)[C@@H](C)O)C(C)C)[C@@H](C)O
B6: N^ε1-[(4S)-4-carboxy-4-[[(4S)-4-carboxy-4-(19-carboxynonadecanoylamino)butanoyl]amino]butanoyl]-[Glu14,Arg17,Pro21,Pro31,Pro34,Glu35]-h-amylin (peptide)
peptide: K([γGlu-γGlu-C20 diacid])CNTATCATQRLAEFLRHSSPNFGAILSSTPVGPETY-NH2
modifications: disulfide 2-7 (inferred)
B7: N^ε1-[(4S)-4-carboxy-4-[[(4S)-4-carboxy-4-(19-carboxynonadecanoylamino)butanoyl]amino]butanoyl]-[Glu14,Arg17,Pro21,Pro27,Pro34,Arg35]-h-amylin (peptide)
peptide: K([γGlu-γGlu-C20 diacid])CNTATCATQRLAEFLRHSSPNFGAIPSSTNVGPRTY-NH2
modifications: disulfide 2-7; N-terminus assumed
SMILES: CC[C@H](C)[C@H](NC(=O)[C@H](C)NC(=O)CNC(=O)[C@H](Cc1ccccc1)NC(=O)[C@H](CC(N)=O)NC(=O)[C@@H]1CCCN1C(=O)[C@H](CO)NC(=O)[C@H](CO)NC(=O)[C@H](Cc1c[nH]cn1)NC(=O)[C@H](CCCNC(=N)N)NC(=O)[C@H](CC(C)C)NC(=O)[C@H](Cc1ccccc1)NC(=O)[C@H](CCC(=O)O)NC(=O)[C@H](C)NC(=O)[C@H](CC(C)C)NC(=O)[C@H](CCCNC(=N)N)NC(=O)[C@H](CCC(N)=O)NC(=O)[C@@H](NC(=O)[C@H](C)NC(=O)[C@@H]1CSSC[C@H](NC(=O)[C@@H](N)CCCCNC(=O)CC[C@H](NC(=O)CC[C@H](NC(=O)CCCCCCCCCCCCCCCCCCC(=O)O)C(=O)O)C(=O)O)C(=O)N[C@@H](CC(N)=O)C(=O)N[C@@H]([C@@H](C)O)C(=O)N[C@@H](C)C(=O)N[C@@H]([C@@H](C)O)C(=O)N1)[C@@H](C)O)C(=O)N1CCC[C@H]1C(=O)N[C@@H](CO)C(=O)N[C@@H](CO)C(=O)N[C@H](C(=O)N[C@@H](CC(N)=O)C(=O)N[C@H](C(=O)NCC(=O)N1CCC[C@H]1C(=O)N[C@@H](CCCNC(=N)N)C(=O)N[C@H](C(=O)N[C@@H](Cc1ccc(O)cc1)C(N)=O)[C@@H](C)O)C(C)C)[C@@H](C)O
notes: also called compound 110

biological target: T1, human calcitonin receptor; assay: ratio IC50 hCTR / IC50 hAmylin-R (reference: human amylin receptor), SPA competition assays
Summary of the method: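 Competition binding by SPA uses membrane preparations (35 ng/μL final) in pH 7.4 Hepes buffer with 1 mM CaCl2 and 5 mM MgCl₂. Incubation lasts 120 min at 25° C, and IC₅₀ comes from one-site fitting.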

Ratio hCT/hAmylin binding | Binder
46.5 | B1
27.3 | B2
28 | B3
35.6 | B4
29.1 | B5
22.6 | B6
53.6 | B7

biological target: T1, human calcitonin receptor; assay: SPA competition with 125I-calcitonin on membranes of BHK cells with human calcitonin receptor (Assay VII)
Summary of the method: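 BHK hCTR membranes 35 ng/μL + SPA beads 0.05 mg/well; buffer 50 mM Hepes pH 7.4, 1 mM CaCl2, 5 mM MgCl₂, 0.1% OA, 0.02% Tween20. 120 min, 25° C., shaking. Scintillation count; IC50 by one-site binding competition.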

IC50 | Binder
34.9 nM | B1
10.3 nM | B2
32.5 nM | B3
22.5 nM | B4
15.2 nM | B5
1.56 nM | B6
17.5 nM | B7

biological target: T2, human amylin receptor (amylin 3(a) …); assay: SPA competition with 125I-rat amylin on membranes of BHK cells with human calcitonin receptor and RAMP-3 (Assay V)
Summary of the method: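 One-site competition analysis of SPA counts yielded IC₅₀ as a measure of affinity. Membranes were at 35 ng/μL final; incubation was 120 min at 25° C, pH 7.4.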

IC50 | Binder
0.75 nM | B1
0.377 nM | B2
1.16 nM | B3
0.633 nM | B4
0.525 nM | B5
0.069 nM | B6
0.326 nM | B7
